# The supplement of paper PMC7877785
# ± gives the uncertainty stated by the source.
# Assay: self-splicing fitness, log relative to wild type (ln ratio); higher = more splicing; Tetrahymena group I intron in knt gene, E. coli kanamycin selection, DiMSum; sequences stand for … in CUCUCU…GGAGGGAAAAGUUAUCAGGCAUGCACCUGGUAGCUAGUCUUUAAACCAAUAGAUUGCAUCGGUUUAAAAGGCAAGACCGUCAAAUUGCGGGAAAGGGGUCAACAGCCGUUCAGUACCAAGUCUCAGGGGAAACUUUGAGAUGGCCUUGCAAAGGGUAUGGUAAUAAGCUGACGGACAUGGUCCUAACCACGCAGCCAAGUCCUAAGUCAACAGAUCUUCUGUUGAUAUGGAUGCAGUUCACAGACUAAAUGUCGGUCGGGGAAGAUGUAUUCUUCUCAUAAGAUAUAGUCGGACCUCUCCUUAAUGGGAGCUAGCGGAUGAAGUGAUGCAACACUGGAGCCGCUGGGAACUAAUUUGUAUGCGAAAGUAUAUUGAUUAGUUUUGGAGUACUCGUGGUCG
# Method in brief: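 DiMSum derived fitness as the error-weighted combination of fold changes across replicates, kanamycin versus no kanamycin, normalised to wild type. E. coli BL21(DE3) held the library, which randomised all eight P1ex-region intron nucleotides within the knt kanamycin-resistance gene on pET-22b(+). Six replicate transformations grew overnight at 37°C or 30°C on LB agar with or without 25 μg/mL kanamycin, also containing 100 μg/mL carbenicillin, 50 μM IPTG and 0.2% rhamnose, and pooled colonies were amplicon-sequenced on an Illumina HiSeq 2500.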
Sequence,self-splicing fitness (ln) (30 °C),self-splicing fitness (ln) (37 °C)
AGUAAGCAAUAUUACGCGGA,-3.49 ± 0.32,-0.326 ± 0.11
GGUGAGCAAUAUUACGACUC,-1.13 ± 0.15,-0.634 ± 0.22
AACUAGCAAUAUUACGCCCG,-1.11 ± 0.18,-0.346 ± 0.23
AAUGAGCAAUAUUACGGAAA,-2.99 ± 0.48,-1.86 ± 0.31
ACAGAGCAAUAUUACGCAUA,-3.96 ± 0.31,-1.8 ± 0.2
AUCAAGCAAUAUUACGCAUA,-1.94 ± 0.099,-0.751 ± 0.084
ACACAGCAAUAUUACGGUGA,-1.31 ± 0.068,0.17 ± 0.077
UACUAGCAAUAUUACGAUAG,-1.44 ± 0.12,-0.923 ± 0.14
AAGUAGCAAUAUUACGAUCA,-0.93 ± 0.11,-0.174 ± 0.11
AACCAGCAAUAUUACGAGUA,-1.07 ± 0.061,-0.523 ± 0.075
GCUGAGCAAUAUUACGGGCA,-1.76 ± 0.39,-2.69 ± 0.36
CUUGAGCAAUAUUACGGAGG,-2.13 ± 0.19,-1.67 ± 0.16
UCUAAGCAAUAUUACGCACG,-1.11 ± 0.19,-1.8 ± 0.23
GAACAGCAAUAUUACGAUCG,-0.614 ± 0.085,-0.564 ± 0.11
AUAAAGCAAUAUUACGUAAU,-0.762 ± 0.081,-0.869 ± 0.094
CGAAAGCAAUAUUACGACAC,-2.69 ± 0.18,-1.56 ± 0.26
CUAAAGCAAUAUUACGUAUC,-3.77 ± 0.18,-2.22 ± 0.22
CAAUAGCAAUAUUACGGCUC,-1.08 ± 0.15,-0.901 ± 0.23
AACUAGCAAUAUUACGUUCU,-1.55 ± 0.061,-1.14 ± 0.079

Sequence,self-splicing fitness (ln) (30 °C),self-splicing fitness (ln) (37 °C)
CAUAAGCAAUAUUACGUCCA,-3.32 ± 0.33,-1.87 ± 0.22
CAGCAGCAAUAUUACGAGGU,-2.8 ± 0.16,-2.42 ± 0.21
UCUAAGCAAUAUUACGCGAC,,-2.84 ± 0.36
CAUAAGCAAUAUUACGACAC,-2.18 ± 0.15,-2.12 ± 0.27
CGCUAGCAAUAUUACGGCCU,-0.677 ± 0.073,-0.609 ± 0.1
GUGAAGCAAUAUUACGGCCG,-1.03 ± 0.13,-0.435 ± 0.17
GGUGAGCAAUAUUACGAGGC,,-0.336 ± 0.33
UCUGAGCAAUAUUACGAAUA,,-1.82 ± 0.48
GCCAAGCAAUAUUACGAUGG,-3.61 ± 0.15,-1.79 ± 0.16
UCCUAGCAAUAUUACGAUGC,-2.85 ± 0.21,-2.7 ± 0.29
UGUGAGCAAUAUUACGGGAG,-2.52 ± 0.21,-2.04 ± 0.33
CGUUAGCAAUAUUACGCACA,-1.33 ± 0.17,-0.0289 ± 0.28
UUGCAGCAAUAUUACGACUC,-1.2 ± 0.11,-0.0756 ± 0.12
UUCAAGCAAUAUUACGUCAA,-0.772 ± 0.092,-0.645 ± 0.1
AUGUAGCAAUAUUACGUUAG,-1.89 ± 0.22,-2.97 ± 0.4
ACGUAGCAAUAUUACGAGGU,-3.36 ± 0.21,-2.02 ± 0.2
GCUAAGCAAUAUUACGUACG,-1.67 ± 0.1,-1.13 ± 0.1
ACUUAGCAAUAUUACGUACC,-2.17 ± 0.23,-1.06 ± 0.23
UACUAGCAAUAUUACGCCAA,0.284 ± 0.44,-1.02 ± 0.25
